Results reported in article PMC3592866.
“And” between values parts separate entries of the source, which are not always exact repeats. Equal entries are not always repeated. One block for each substance: values may come before it.

Assays:
[1] = target: pXqua MltBP-QUA1-C59S/R67E/E72R fusion protein (Xenopus laevis); assay: SEC; analytical Superdex-200 PC 3.2/30 of MltBP-QUA1 fusion proteins; 20 mM Tris-HCl pH 7.9, 150 mM NaCl, 0.05% sodium azide; 50 uL at 1 mg/mL loaded; apparent aggregation numbers from calibration; monomer to dimer
[2] = target: pXqua QUA1-C59S (protease-liberated peptide) (Xenopus laevis); assay: AUC; sedimentation equilibrium of released QUA1-C59S, global single species fits; monomer to dimer
[3] = target: wild type pXqua MltBP-QUA1 fusion protein (Xenopus laevis); assay: SEC; analytical Superdex-200 PC 3.2/30 of MltBP-QUA1 fusion proteins; 20 mM Tris-HCl pH 7.9, 150 mM NaCl, 0.05% sodium azide; 50 uL at 1 mg/mL loaded; apparent aggregation numbers from calibration; monomer to dimer
[4] = target: pXqua MltBP-QUA1-C59S fusion protein (Xenopus laevis); assay: as above
[5] = target: pXqua MltBP-QUA1-C59S/R67A fusion protein (Xenopus laevis); assay: as above
[6] = target: pXqua MltBP-QUA1-C59S/R67A/E72G fusion protein (Xenopus laevis); assay: as above

AAN (apparent aggregation number) [1]: 2.1
percent of species in the dimeric state [1]: 70%
Substance: pXqua MltBP-QUA1-C59S/R67E/E72R fusion protein (domain or fragment)

stoichiometry N [2]: 2
Substance: pXqua QUA1-C59S (protease-liberated peptide) (domain or fragment)

stoichiometry N [3]: 4 and 2
Substance: wild type pXqua MltBP-QUA1 fusion protein (domain or fragment)

AAN (apparent aggregation number) [4]: 2.7
stoichiometry N [4]: 2
Substance: pXqua MltBP-QUA1-C59S fusion protein (domain or fragment)

AAN (apparent aggregation number) [5]: 1.7
percent of species in the dimeric state [5]: 40%
Substance: pXqua MltBP-QUA1-C59S/R67A fusion protein (domain or fragment)

fraction eluting in the dimer peak [6]: 0.33
Substance: pXqua MltBP-QUA1-C59S/R67A/E72G fusion protein (domain or fragment)
